The source of these data is the nanobody polyreactivity screen of Harvey et al. (2022).

The data set in a line: yeast display, Sf9 membrane polyspecificity reagent, FACS + sequencing; frameworks hold sequencing errors. In short, it runs like this:
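A synthetic nanobody library was expressed on Saccharomyces cerevisiae BJ5465 by galactose induction for 36–48 hours. The library was stained for 1 hour at 4 °C with 10% biotinylated, detergent-solubilized Sf9 membrane reagent and enriched with streptavidin microbeads before FACS. Low and high (top ~1%) gates were set on anti-HA fluorescence for expression and streptavidin fluorescence for reagent binding, and each polyreactivity label reflects the gate of origin.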
On to “QVQLVESGGGLVQAGGSLRLSCAASGFTFVYYAMGWYRQAPGKERELVAAISGRGGSTYYADSVKGRFTISRDNAKNTVYLQMNSLKPEDTAVYYCATTYSWYYVPDKTHIYYYWGQGTQVTVSS”, for which the “polyreactivity (PSR sort gate)” value is reported as “low polyreactivity”. The value for “QVQLVESGGGLVQAGGSLRLSCAASGFTFPYYAMGWYRQAPGKERELVAVISRSGGSTYYADSVKGRFTISRDNAKNTVYLQMNSLKPEDTAVYYCAKRYSLTGGKRTGYYWGQGTQVTVSS” was “high polyreactivity”. For the sequence “QVQLVESGGGLVQAGGSLRLICAASGSTFLTNVMGWYRQAPGKERELVAAISRGGGRTYYADSVKGRFTISRDNAKNTVYLQMNSLKPEDTAVYYCNAVDASHAGPVGGAFRYDYWGQGTQVTVSS”, the “polyreactivity (PSR sort gate)” value is reported as “high polyreactivity”. The same measure for “QVQLVESGGGLVQAGGSHRLSCAASGRTFVFYAMGWYRPAPGKERELVAAISRSGGSTYYADSVKGRFTISRDNAKNTVFLQMNSLKPEDTAVSYCNARYTGSGGYWGQGTQVTVSS”: “high polyreactivity”; for “QVQLVESGGGLVQAGGSLRLSCAASGRIFTRNAMGWCRPAPGKERELVAAITYTGANTYYADSVKGRFTISRDNAKNTVYLQMNSLKPEDTAVYYCAADGRVKGWGQGTQVTVSS”: “high polyreactivity”; for “QVQLVESGGGLVQAGGSLRLSCAASGSIVSGYAMRWYRQAPGKQRELVAAISRGGSTNYADSVKGRFTISRDNAKNTVYLQMNSLKPEDTAVYYCANTPTKYHYAFGYWGQCTQVTVSS”: “low polyreactivity”. The same measure for “QVQLVESGGGLVQAGGSLRLSCAASGFTFAVYVMGWYRQAPGKERELVAAISRSGGSTYYADSVKGRFTISRDNAKNTVYLQMNSLKPEDTAVYYCNARVWAKYDYWGQGTQVTVSS”: “high polyreactivity”; for “QVQLVESGGGLVQAGGSLRISCAASGSIFASNAMGWYRQAPGKEREFVAAITWRTDRTYYADSVKGRFTISRDNAKNTVYLQMNSLKPEDTAVYYCAADTWFYRFYYWGQGTQVTVSS”: “high polyreactivity”; for “QVQLVESGGGLVQAGGSLRLSCAASGSTFYFYTMVWYRQAPGKEREFVAAISRRGGSTYYADSVKGRFTISRDNAKNTVYLQMNSLKPEDTAVYYCAAYTSTSDNGDSWGQGTQVTVSS”: “high polyreactivity”. The value for “QVQLVESGGGLVQAGGSLRLSCAASGRTFKYYAMGWYRQAPGKERELVAAITASDGSTYYADSVKGRFTISRDNAKNTVYLQMNSLKPEDTAVYYCAAVPYRYTYDYWGQGTQVTVSS” was “high polyreactivity”; that for “QVQLVESGGGLVQAGGSLRLSCAASGLTLYKNGMGWYRQAPGKERELVAVISRSGGRTYYADSVKGRFTISRDNAKNTVYVQMNSLKPEDTAVYYCAARQYGPRYTYYYWGQGTQVTVSS” was “high polyreactivity”; that for “QVQLVESGGGLVQAGRSLRLSCAASVYILYHNAMGWYRQAPGKERELVAAISYSGGRTYYADSVKGRFTISRDNAKNTVYLQMNSLKPEDTSVYYCNALSVWRTGRGQEFDYWGQGTQVTVSS” was “high polyreactivity”. As to “QVQLVESGGGLVQAGGSLRLSCAASGSTFWHYAMGWYRQAPGKERELVAAISSGGGRTYYADSVKGRFTISRDNAKNTVYLQMNSLKPEDTAVYYCAARYYFYDYWGQGTQVTVSS”, the “polyreactivity (PSR sort gate)” value is listed as “high polyreactivity”. Regarding “LLQLVESVGGLVQAGGTLRLSCAASRSTFHANTLGGYRKAPGKERELVAAISIRGANTYYADSVKGRLTISSDNAKNTVYLQMNSLKREDTAVYYCATRVRKYSLRLDYWGQGTQVTVSS”, the “polyreactivity (PSR sort gate)” value is reported as “high polyreactivity”. As for “QVQLVESGGGLVQAGGSLRLICAASGSIFGYYAMGWYRQAPGKERELVAAISYSGSRTYYADSVKGRFTISRDNAKNTVYLQMNSLKPEDTAVYYCAARGSRLYSSWRGDYWGQGTQVTVSS”, the “polyreactivity (PSR sort gate)” value is given as “high polyreactivity”. The value for “QVQLVETGGGLVQAGGSLRLICAASGSTFQYYAMGWSRQAPGKERELVAAITHSGTRTYYADSVKGRFTISRDNAKNTVYLQMYRLKPEDTSVYYCAALYTWYRYYRLDYWGQGTQVTVSS” was “high polyreactivity”; that for “QVQLVESGGGLVQAGGSLRLSCAASGSIFAANAMGWYRQAPGKERELVADITKSGGSTYYADSVKGRFTISRDNAKNTVYLQMNSLKPEDTAVYYCNADDTQLESFAPGHGYDYWGQGTQVTVSS” was “low polyreactivity”. In the case of “QVQLVESGRGLVQAGVSLRLSCAASGRIFTNNAMGLYRQAPGKERELVAAINVSGGRTYYADSVKGRFTISRENAKNTVYLQMNSLKPEDTAVYYCNKVKETYMDYWGQGTQVTVSS”, the “polyreactivity (PSR sort gate)” value is on record as “high polyreactivity”. The value for “QVQLVESGGGLVQAGGSLRLSCAASGSIFCYYAMGWYRQAPGKERELVATITSGGSTSYADSVKGRFTISRDNAKNTVYLQMNSLKPEDTAVYYCAAARLFTTYDWGQGTQVTVSS” was “low polyreactivity”; that for “QVQLVESGGGLVQAGGSLRLSCAASGRTFNIYAMGWYRQAPGKERELVAAITFTGGNTYYADSVKGRFTISRDNAKNTVYLQMNSLKPEDTAVYYCNKRLKWRSYDYWGQGTQVTVSS” was “low polyreactivity”; that for “QVQLQESGGGLVQGGGSLRLSCAASGSIYRYWYMGWYRQAPGKERELVASITEGATTNYAYSVKAALPLAAITRNTVYLQMDSMKPEDTAVYYRAASFGSTYDLVYWGQGTQVTVSS” was “high polyreactivity”.

Turning to “QVQLVESGGGLVQAGGSLRLSCASSGFTFRLNAMGWYRQAPGKERELVAAITRSGGNTYYADSVKGRFTISRDNAKNTVYLQMNSLKPEDTAVYYCAVRQLDRRSPKYNYWGQGTQVTVSS”, the “polyreactivity (PSR sort gate)” value was “high polyreactivity”. For the sequence “QVQLVESGGGLVQAGGSLRISCAASGSTLQYYAMGWYRQAPGKERELVAAISWRGARTYYADSVKGRFTISRDNAKNTVYLQMNSLKPQDTAVYYCAAVYGSRGYAGNYYWGHGTQVTVSS”, the “polyreactivity (PSR sort gate)” value was “high polyreactivity”. The value for “QVQLVESGGGLVQAGGSLRLSCAASGRTFYYYAMGGYRQAPGKERELVAAIRGGGGSTYADSVKGRFTISRDNAKNTVYLQMNSLKPEDTAVYYCNVVRTGRYPGFLTFDYWGQGTQVTVSS” was “high polyreactivity”; that for “QVQLVESGGGLVQAGGSLRLSCAASSIFPSNAMGLYRPAPGKERELVAAISSGGSTNYADSVKGRFTISRDNAKNTVYLQMNSLKPEDTAVYYCAAVRYYRRRTGSYYHYDYWGQGTQVTVSS” was “low polyreactivity”; that for “QVQLVESGRGLVQAGGSLRLSCAASGSIFVDYTMGWYRQAPGKERELVARITSGGSTYYADSVKGRFTISRDNAKNSVYLQMNSLKPEDTAVYYCAARPYYRYRNSWREQYYYWGQGTQVTVSS” was “high polyreactivity”. The value for “QVQLVESGGGLVQAGGSLRLSCAASGSILRSNAMGWYRQAPGKERELVAAITFNGGSTYADSVKGRFTISRDNAKNTVYLQMNSLIPEDTAVYYCATGDGPSLFDYWGQGTQVTVSS” was “low polyreactivity”; that for “QVQLVESGGGLVQAGGSLRLSCAASGFIFDDYAMGWNRQAPGKERELVAAITDSGDGTDYADSVKGRFTISRDNAKNTVYLQMNSLKPEDTAVYYCAAGLWYSYDYWGQGTQVTVSS” was “high polyreactivity”. The value for “QVQLVESGGGLVQAGGSLRLSCAASGRTFYYYVMGWYRQAPGKERELVAAISARDGSTYYADSVKGRFTISRDNAKNTVYLQMNSLKPEDTAVYYCNVRALYTRRYDYWGQGTQVTVSS” was “high polyreactivity”; that for “QVQLVESGGGLVQAGGSLRLSCAASGRIFRSYAMGWYRQAPGKERELVAAITWSGGSTYYADSVKGRFTISRDNAKNTVYLQMDSLKPEDTAVYYCARVVTKKYSHTGYEYWGQGTQVTVSS” was “high polyreactivity”.

For the sequence “QVQLVESGGGLVQAGGSLRLSCAASGSIFGNAMGWYRPAPGKERELVAAISRRGGRTYYADSVKGRFTISRDNAKNTVYLQMNSLKPEDTAVYYCANTAKTWGWWLRGYGYWGQGTQVTVSS”, the “polyreactivity (PSR sort gate)” value is listed as “high polyreactivity”. The value for “QVQLVESGGGLGQAGGSLRLRCAASGSTFQYYAMGWYRQAPGKERELVAAITHSGTRTYYADSVKGRFTISRDNAKNTVYLQMNSLKPVDTAVYYCAARGYGKYDYWGQGTQVTVSS” was “high polyreactivity”. The same measure for “QVQLVESGGGLVQAGGSLRLSCAASGRIFWTYAMGWYRQAPGKERELVASITWSGGSTYYADSVKGRFTISRDNAKNTVYLQMNSLKPEDTAVYYCAADRHTYWYDYWGQGTQVTVSS”: “low polyreactivity”; for “QVQLVESGGGLVQAGGSLRLSCAASGRIFKRYAMGWYRQAHGKERELVASITWSGGSTYYADSVKGRFTISRDNAKNTVYLQMNSLKPEDTEVYYCAARRTATTSRAYYYWGQGTQVTVSS”: “high polyreactivity”; for “QVQLVESGGGLVQAGGSLRLSCAASGLTFIAYAMGWYRQAPGKERELVAAITWIGDSTYYADSVKGRFTISRDNAKNTVYLQMNSLKPEDTAVYYCATDWYGQYNGIYDYWGQGTQVTVSS”: “low polyreactivity”. The value for “QVQLVESGGGLVQAGGSLRLSCAASGFTIGNYAMGWYRQAPGKERELVAAISSSGTSTYYADSVKGRFTISRDIAKNTVYLQMNSLKPEDTAVYYCAAEYIINYTIFEYWGQGTQLTVSS” was “high polyreactivity”; that for “QVQLVESGGGLVHAGGSLRLSCAASGSTFGDNAMGWYRQAPGKERELVAAITSGTSTNYADSVKGRFTISRDNAKNTVYLQMNSLKPEDTAVYYCAAQYYGVAKQGLDEEDYWGQGTQVTVSS” was “low polyreactivity”; that for “QVQLVESGGGIVQAGGSHRLSCAASGRTFRYNAMGWYRQAPGKERELVAAISGRGSSTYYADSVKGRFTISRDNAKNTVYLQMNSLKPEDTAVYYCAALPASVRRPGWHDYWGQGTQVTVSS” was “high polyreactivity”. “QVQLVESGAGLVQARGSLRISCAASGSIFGRYAMGWYRQAPRKERELVASIYSTGGRTYYADSVKGRFTISRDNAKNTVYLQMNSLKPEDTAVYYCAAKFYEYSTAGTQWIRYYYWGQGTQVTVSS”: the “polyreactivity (PSR sort gate)” value is recorded as “high polyreactivity”. The same measure for “QDQLVESAAGLVQAGGSLRLSCAASGRTLYTNALGWYIQAPGKERELVAAISSDSSTKYADSVKGRFTISRDNAKNTVYLQMNSLKPEDTAVYYCARRGAFYYLYGHQYALYDYWGQGTQVTVSS”: “low polyreactivity”; for “QVQLVESGGGLVQAGGSLRLSCAASGSTFRDYDMGWYRQAPGKERELVAAISRSGGRTYYADSVKGRFTISRDNAKNTVYLQMNSLKPEDTAVYYCAARRYTRRANPAYPYEYWGQGTQVTVSS”: “high polyreactivity”.
